Data: patent US20100216191A1, “Method for Manufacturing a Modified Peptide” (PROCOMCURE BIOTECH GMBH, priority 2007, published 2010)

Assays:
[1] = target: ClfB (clumping factor B of S. aureus, NCBI Protein GI 15925620) (Staphylococcus aureus), Q99R07; assay: cell-based or functional assay
[2] = target: His-tagged recombinant ClfB protein (Staphylococcus aureus); assay: pull-down competition on His-tagged ClfB beads, anti-GST Western blot, densitometry; competes with GST-tagged Frag2-CDS

ClfB (clumping factor B of S. aureus, NCBI Protein GI 15925620) (Staphylococcus aureus), Q99R07, sequence (Q99R07 45-841 limits assumed): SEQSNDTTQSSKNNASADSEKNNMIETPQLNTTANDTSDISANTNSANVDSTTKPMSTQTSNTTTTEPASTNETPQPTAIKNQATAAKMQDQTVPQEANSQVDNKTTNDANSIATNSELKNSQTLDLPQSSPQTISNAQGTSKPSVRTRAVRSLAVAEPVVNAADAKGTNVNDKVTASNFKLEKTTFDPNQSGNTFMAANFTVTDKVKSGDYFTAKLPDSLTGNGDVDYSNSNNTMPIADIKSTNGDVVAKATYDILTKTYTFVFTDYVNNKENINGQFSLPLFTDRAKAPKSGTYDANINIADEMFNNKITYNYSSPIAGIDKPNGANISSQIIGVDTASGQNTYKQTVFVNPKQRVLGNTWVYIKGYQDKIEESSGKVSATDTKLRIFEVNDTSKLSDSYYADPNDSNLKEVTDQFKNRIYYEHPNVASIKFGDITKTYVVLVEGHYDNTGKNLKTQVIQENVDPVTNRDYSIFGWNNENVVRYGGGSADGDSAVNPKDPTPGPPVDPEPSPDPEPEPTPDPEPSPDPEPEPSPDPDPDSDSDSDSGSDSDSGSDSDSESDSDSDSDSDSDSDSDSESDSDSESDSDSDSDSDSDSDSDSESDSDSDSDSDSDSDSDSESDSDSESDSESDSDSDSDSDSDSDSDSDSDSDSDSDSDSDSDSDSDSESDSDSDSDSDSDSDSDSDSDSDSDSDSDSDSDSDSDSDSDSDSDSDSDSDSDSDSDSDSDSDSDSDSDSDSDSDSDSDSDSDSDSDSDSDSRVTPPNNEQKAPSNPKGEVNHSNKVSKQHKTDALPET

Binder | beta-galactosidase expression (X-Gal beta galactosidase overlay assay, Y2H) (% more than the original binder) [1] | percent inhibition of the binding of GST-tagged keratin fragment to ClfB-protein at 1 µM peptide [2]
YSLGSSFGSGAGSSSSSRTSPSRAVVVK (modifications not checked) [more stronger binder (peptide SEQ ID NO 73)] | > 100 | –
YSLGSSFGSGAGSSSLGRTSSSRAVVVK (modifications not checked) [stronger binder (peptide SEQ ID NO 97)] | > 50 | –
SYSLGSSFGSGAGSSSFSRTS (modifications not checked) [IPEP-21SA (synthetic peptide of 21 amino acids)] | – | 40%
